Measurements taken from patent US20250250357A1 (NANJING ZAIMING PHARMACEUTICAL, published 2025).
Blank lines part the entries; values can stand above or below the binder they belong to.

What was measured:
[1] = target: T1, human MSLN protein endogenously expressed on OVCAR3 tumor cells (human, UniProt Q13421 296-598); experiment: FACS on OVCAR3 cells;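 also: flow cytometry binding of test antibodies to cells, 2 h incubation on ice, readout as cell mean fluorescence intensity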
T1 construct: whole, on cells; Endogenous target on OVCAR3 cells; kept apart from the recombinant full-length construct; also called mesothelin
T1 sequence (Q13421 other isoform, or with tags, fused parts or gaps): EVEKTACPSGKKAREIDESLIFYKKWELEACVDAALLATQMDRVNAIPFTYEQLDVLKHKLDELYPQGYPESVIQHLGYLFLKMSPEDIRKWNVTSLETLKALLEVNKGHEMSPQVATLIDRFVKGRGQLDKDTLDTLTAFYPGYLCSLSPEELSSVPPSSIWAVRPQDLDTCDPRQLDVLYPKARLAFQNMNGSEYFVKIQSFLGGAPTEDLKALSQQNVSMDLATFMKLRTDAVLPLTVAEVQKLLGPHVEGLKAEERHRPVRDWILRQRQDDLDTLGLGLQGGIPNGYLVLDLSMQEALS

[2] = target: T2, human MSLN-R3 protein (Met487-Ser606 of NCBI AAH09272.1) expressed on HEK293T-hMSLN-R3 cells (human, UniProt Q13421 487-606); experiment: FACS on HEK293T-hMSLN-R3 cells;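 also: flow cytometry binding of test chimeric antibodies to cells after 2 h incubation on ice, with values derived from the mean fluorescence intensity of the cells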
T2 construct: also called Region3
T2 sequence (Q13421 495-614): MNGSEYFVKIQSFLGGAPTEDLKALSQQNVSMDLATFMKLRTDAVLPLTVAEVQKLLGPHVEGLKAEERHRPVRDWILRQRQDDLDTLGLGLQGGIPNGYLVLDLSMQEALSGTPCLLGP

[3] = target: T3, monkey MSLN full-length protein (NCBI: XP_028696439.1) expressed on HEK293T-monkey MSLN cells (monkey); experiment: FACS on HEK293T-monkey MSLN cells;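 also: flow cytometry binding of chimeric antibodies to the cells, with a 2 h incubation on ice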
T3 construct: Whole encoded precursor
T3 chain: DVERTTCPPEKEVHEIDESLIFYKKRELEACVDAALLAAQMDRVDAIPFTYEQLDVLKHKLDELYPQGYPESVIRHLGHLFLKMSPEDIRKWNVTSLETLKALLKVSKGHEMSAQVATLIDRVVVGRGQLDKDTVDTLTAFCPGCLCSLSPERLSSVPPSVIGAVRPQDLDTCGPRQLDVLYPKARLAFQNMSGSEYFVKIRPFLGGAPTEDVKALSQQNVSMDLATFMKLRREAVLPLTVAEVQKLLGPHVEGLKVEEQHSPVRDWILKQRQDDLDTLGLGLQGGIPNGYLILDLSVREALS

[4] = target: T4, human MSLN-R2-his protein (human, UniProt Q13421 391-486); experiment: ELISA, coated MSLN-R2;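 also: chimeric antibodies bound to blocked coated plates for 2 h at 37 °C, TMB colour development stopped with HCl, with a negative control antibody for comparison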
T4 construct: Region 2 of human MSLN, His-tagged; also called human MSLN-R2 protein; hMSLN-R2-his; not shown: His tag
T4 sequence (Q13421 other isoform, or with tags, fused parts or gaps): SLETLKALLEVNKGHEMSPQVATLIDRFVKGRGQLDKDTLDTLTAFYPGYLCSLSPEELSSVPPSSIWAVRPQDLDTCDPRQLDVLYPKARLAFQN

[5] = target: T5, human MSLN-R3-his protein (human, UniProt Q13421 487-598); experiment: ELISA, coated MSLN-R3
T5 construct: Region 3 of human MSLN, His-tagged; also called human MSLN-R3 protein; hMSLN-R3-his; not shown: His tag
T5 sequence (Q13421 495-606): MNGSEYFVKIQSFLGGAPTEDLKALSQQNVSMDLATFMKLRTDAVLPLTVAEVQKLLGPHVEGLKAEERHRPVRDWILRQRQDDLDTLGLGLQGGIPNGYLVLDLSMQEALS

[6] = target: T6, human MSLN-R3-3 polypeptide (human); experiment: ELISA, coated MSLN-R3-3;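 also: chimeric antibodies in serial dilution bound to plate-coated antigen for 2 h at 37 °C, with a negative control antibody alongside, and TMB colour development stopped with HCl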
T6 construct: also called human MSLN-R3-3 protein; hMSLN-R3-3

[7] = target: T7, human MSLN-R3 protein expressed on HEK293T cells (HEK293T-hMSLN-R3) (human, UniProt Q13421 487-606); experiment: FACS on HEK293T-hMSLN-R3 cells;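 also: chimeric antibodies incubated with cells on ice for 2 h, binding read by flow cytometry as mean fluorescence intensity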
T7 construct: C-terminal limit uncertain
T7 sequence (Q13421 495-614): as the sequence (Q13421 495-614) above

EC50 [1]: 0.99 nM
Maximum mean fluorescence intensity [1]: 31800
EC50 [2]: 0.31 nM
Maximum mean fluorescence intensity [2]: 6420
EC50 [3]: 0.7 nM
Maximum mean fluorescence intensity [3]: 56100
B1: S009-F7.6.17 (antibody, human IgG1, kappa, V domains shown)
VH: QVQLQQSGAELARPGASVKMSCKASGYTFTTYTMHWVKQRPGQGLEWIGYISPTGDFTKYNQKFKDKATLTTDKSSNTAFMQLSSLTSEDSAVYYCARWNGTVWFAYWGQGTLVTVSA
VL: DIVMTQSQKFMSTSVGDRVTVTCKASQALGTNVAWYQQKPGQSPKVLIYSASYRYSGVPYRFAGGGSGTDFTLTITNVQSEDLAEYFCQQYNNYPLTFGAGTKLELKR
notes: human-murine chimeric antibody, human IgG1/kappa constant regions

EC50 [1]: 0.15 nM
Maximum mean fluorescence intensity [1]: 29300
EC50 [2]: 0.05 nM
Maximum mean fluorescence intensity [2]: 6570
EC50 [3]: 0.13 nM
Maximum mean fluorescence intensity [3]: 54300
B2: S009-F7.23.19 (antibody, human IgG1, kappa, V domains shown)
VH: EVKLVESGGGLVQPGGSLSLSCAASGFTFTDYYMSWVRQPPGKALEWLGFIRSKANAYTTEYSASVKGRFTISRDNSQSILYLQMNDLRAEDSATYYCARYYYYGSGYVWYFDVWGTGTTVTVSS
VL: DIVMTQSQKFMSTSVGDRVSVTCKASQSVGTNVAWYQQKPGQFPKALIYSASYRYSGVPDRFTGSGSGTDFTLTIINVQSEDLAEYFCQQYNSYPLTFGAGTKLELKR
notes: as for B1

EC50 [1]: 0.86 nM
Maximum mean fluorescence intensity [1]: 31800
EC50 [2]: 0.28 nM
Maximum mean fluorescence intensity [2]: 6260
EC50 [3]: 0.41 nM
Maximum mean fluorescence intensity [3]: 49500
B3: S009-F7.11.11 (antibody, human IgG1, kappa, V domains shown)
VH: EVQLQQSGPELVKPGASVKIPCKASGYTITDYNMDWVKQSRGKSLEWIGDVFPYNGDSIYNQKFEGRATLTVDKYSSTAYMELRGLTSEDTAVYFCARRKTGTGYFDVWGTGTTVTVSS
VL: QLVLTQSPAIMSASPGEKVTLTCSASSSVSSTYLSWYLQKPGSSPKLWIYSTSNLASGVPARFSGSGSGTSYSLTISSMEAEDAASYFCHQWSSYPYTFGGGTKLEIKR
notes: as for B1

EC50 [1]: 0.32 nM
Maximum mean fluorescence intensity [1]: 21400
EC50 [2]: 0.12 nM
Maximum mean fluorescence intensity [2]: 6610
EC50 [3]: 6.34 nM
Maximum mean fluorescence intensity [3]: 7630
B4: S009-F7.12.13 (antibody, human IgG1, kappa, V domains shown)
VH: EVQLQQSGPELVKPGASVKIPCKASGYTFTDYNMDWVKQSHGKGLEWIGDINPNTDDTIYNQKFNGKATLTVDKSSSTAYMELRSLTSEDTAVYYCSRRLIGTGYFDVWGTGTTVTVSS
VL: QIVLTQSPAIMSASPGEKVTLTCSASSSVISTYLCWYRQKPGSSPELWIYSTSNLASGVPARFSGSGSGTSYSLTISSMEAEDAASYFCHQWSNYPYTFGGGTKLGMKR
notes: as for B1

EC50 [1]: 1.74 nM
Maximum mean fluorescence intensity [1]: 22800
Maximum mean fluorescence intensity [2]: 33
binding result [2]: no binding
B5: S009-F7.2.3 (antibody, human IgG1, kappa, V domains shown)
VH: ELQLVESGGDLVKPGGSLKLSCAASGFTFSSNGMSWLRQTPDKRLEWVATISSGGRYTYYPDSVKGRFTISRDNAKNTLYLQMSSLKSEDTAMYYCARRGIYDYFDCWGQGTTLTVSS
VL: DIQMTQSPASLSISVGETVTITCRASENIHSSLAWYQQKQGKSPQLLVYAATNLADGVPSRFSGSGSGSQYSLKINSLQSEDFGTYYCQHFWGTPWTFGGGTKLDIKR
notes: as for B1

EC50 [1]: 0.2 nM
Maximum mean fluorescence intensity [1]: 16200
EC50 [2]: 0.09 nM
Maximum mean fluorescence intensity [2]: 6940
Maximum mean fluorescence intensity [3]: 108
binding result [3]: no binding
B6: S009-F7.26.15 (antibody, human IgG1, kappa, V domains shown)
VH: DVQLQESGPGLVKPSQTVFLTCTVTGISITTGNYRWSWIRQFPGNKLEWIGYIYYTGFITYNPSLTSRTTITRDTPKNQFFLEMKSLTAEDTATYYCARDDYDYDVFAYWGQGTLVTVSA
VL: DIQMTQSPASLSASVGETVTITCRASGNIHNYLAWYHQKQGKSPQFLVYKAKTLADGVPSRFSGSGSGTQYSLKINRLQPEDFGSYYCQHFLSIPLTFGAGTKLELKR
notes: as for B1

OD450 at 0.0001 nM [4]: 0.04 OD450
OD450 at 0.001 nM [4]: 0.05 OD450
OD450 at 0.01 nM [4]: 0.05 OD450
OD450 at 0.1 nM [4]: 0.04 OD450
OD450 at 1 nM [4]: 0.05 OD450
OD450 at 10 nM [4]: 0.05 OD450
OD450 at 100 nM [4]: 0.06 OD450
OD450 at none (no antibody) [4]: 0.05 OD450
OD450 at 0.0001 nM [5]: 0.05 OD450
OD450 at 0.001 nM [5]: 0.05 OD450
OD450 at 0.01 nM [5]: 0.05 OD450
OD450 at 0.1 nM [5]: 0.05 OD450
OD450 at 1 nM [5]: 0.05 OD450
OD450 at 10 nM [5]: 0.05 OD450
OD450 at 100 nM [5]: 0.06 OD450
OD450 at none (no antibody) [5]: 0.05 OD450
OD450 at 0.0001 nM [6]: 0.07 OD450
OD450 at 0.001 nM [6]: 0.07 OD450
OD450 at 0.01 nM [6]: 0.07 OD450
OD450 at 0.1 nM [6]: 0.08 OD450
OD450 at 1 nM [6]: 0.07 OD450
OD450 at 10 nM [6]: 0.07 OD450
OD450 at 100 nM [6]: 0.15 OD450
OD450 at none (no antibody) [6]: 0.07 OD450
B7: S009-F1.35.24 (antibody, human IgG1, kappa, V domains shown)
VH: EVQLQQSEPELVKPGASVRISCKASGYSFTDYYMHWVKQSPENRLEWIGEINPSTGGTSYNPKFKDKATLTVDKSSSTAYMQLKSLTSEESAVYYCTRYHYYGSSSYVMDYWGQGTSVTVSS
VL: QIVLTQSPAILSASPGERVTMTCSASSSVYHMHWFQQKSGTSPKRWVYDTSKLASGVPARFSGSGSGTSYSLTISSMEAEDAATYYCQHWRTNPLTFGAGTKLELKR
notes: Human-murine chimeric antibody, human IgG1/kappa constant regions

EC50 [7]: 1 nM
Maximum mean fluorescence intensity [7]: 24500
B8: Tab106 (YP218, hIgG1) (antibody, V domains shown)
VH: QQQLEESGGGLVKPEGSLTLTCKASGFDLGFYFYACWVRQAPGKGLEWIACIYTAGSGSTYYASWAKGRFTISKASSTTVTLQMTSLAAADTATYFCARSTANTRSTYYLNLWGPGTLVTVSS
VL: DVVMTQTPASVSEPVGGTVTIKCQASQRISSYLSWYQQKPGQRPKLLIFGASTLASGVPSRFKGSGSGTEYTLTISDLECADAATYYCQSYAYFDSNNWHAFGGGTEVVVRT
notes: control antibody; YP218 VH and VL in human IgG1 CH and CL vectors; also called YP218 human IgG1 antibody

EC50 [1]: 0.52 nM
Maximum mean fluorescence intensity [1]: 32600
EC50 [2]: 0.16 nM
Maximum mean fluorescence intensity [2]: 6820
EC50 [3]: 0.3 nM
Maximum mean fluorescence intensity [3]: 50900
B9: S009-F7.21.16 (antibody, human IgG1, kappa, V domains shown)
VH: QVQLQQPGTELVKPGASVKLSCKASGYTFTTFWMHWVKQRPGQGLEWIGGVNPTNGGTNYNEKFRTKATLTVDKSSTTADMQLSSLTSEDSAVYYCAPHYISSRPGFAYWGQGTLVTVSG
VL: DIVMTQSQKFMSTSGGDRVSVTCKASQNVGTNVAWYQQKPGQSPKALIYSASYRYSGVPDRFTGSGSGTDFILTISNVQSEDLAEYFCQQYNSYPLTFGGGTKLEIKR
notes: as for B1

EC50 [1]: 0.66 nM
Maximum mean fluorescence intensity [1]: 31800
EC50 [2]: 0.24 nM
Maximum mean fluorescence intensity [2]: 6160
EC50 [3]: 0.34 nM
Maximum mean fluorescence intensity [3]: 47400
B10: S009-F7.30.5 (antibody, human IgG1, kappa, V domains shown)
VH: QVQLQQPKTELVKPGASVKLSCKASGYIFTTYWMHWVKQRPGQGLEWIGNVNPSNGGTMYNEKFERRATLTVDKSSSTADMQLSSLTSEDSAVYYCVPHYIGSRPGFAYWGQGTLVTVSG
VL: DIVMTQSQKFMSTSVGDRVSVTCKASQNVGTNVAWYQHKPGQSPKALLYSASYRYSGVPDRFTGSGSGTDFTLTITNVQSEDLAEYFCQQYNSYPLTFGGGTKLEIKR
notes: as for B1

EC50 [1]: 0.15 nM
Maximum mean fluorescence intensity [1]: 31200
EC50 [2]: 0.06 nM
Maximum mean fluorescence intensity [2]: 6480
EC50 [3]: 0.13 nM
Maximum mean fluorescence intensity [3]: 47300
B11: S009-F7.33.24 (antibody, human IgG1, kappa, V domains shown)
VH: QVQLQQPGTELVKPGASVKLSCKASGYTFTSYWMHWVKQRPGQGLEWIGNVNPSNGGSNYNEKFKNKATLTVDKSSSTADMQLNSLTSEDSAVYYCAPHYIGSRPGFAYWGQGTLVTVSG
VL: DIVMTQSQKFMSTSVGDRVSVTCKASQNVGTNIAWYQQKPGQSPKALIYSASYRYSGVPDRFTGSGSGTDFTLTITNVQSEDLAEYFCQQYNSYPLTFGGGTKVEIKR
notes: as for B1

EC50 [1]: 0.18 nM
Maximum mean fluorescence intensity [1]: 24200
EC50 [2]: 0.06 nM
Maximum mean fluorescence intensity [2]: 5350
EC50 [3]: ~0.16 nM
Maximum mean fluorescence intensity [3]: 43200
B12: S009-F7.25.19 (antibody, human IgG1, kappa, V domains shown)
VH: QVQLQQPGTELVKPGASVKLSCKASGYTFTSYWMHWVKQRPGQGLEWIGNIIPSNGGTKYNEKFKSKATLTVDKSSSTAYMQLSSLTSEDSAVYYCSPHYYGGSPGFAYWGQGTLITVSA
VL: DIVMTQSQKFMSTSVGDRVSVICKASQNVGTNVAWYQQKPGQSPKALIYSASYRYSGVPDRFTGSGSGTDFTLTISNVQSEDLAEYFCQQYNSYPLTFGGGTKLEIKR
notes: as for B1

EC50 [1]: 3.29 nM
Maximum mean fluorescence intensity [1]: 29900
Maximum mean fluorescence intensity [2]: 39
binding result [2]: no binding
EC50 [3]: 0.47 nM
Maximum mean fluorescence intensity [3]: 50600
B13: S009-F7.18.10 (antibody, human IgG1, kappa, V domains shown)
VH: QVQLQQSGAELVRPGTSVKVSCKASGYAFTNYLIEWVKQRPGQGLEWIGVINPGSGGTKYNEKFKGKATLTADKSSSTAYMQLSSLTSEDSAVYFCASDYDYDPFAYWGQGTLVTVSA
VL: DIVMTQSHKFMSTSVGDRVSITCKASQDVSTAVAWYQRKPGQSPKLLIYWASTRHTGVPDRFTGSGSGTDYTLTISYMQAEDLALYYCQQHYSTPYTFGGGTKLEIKR
notes: as for B1
